Results from IntAct's records for PubMed 25009770.

B1: 26S proteasome non-ATPase regulatory subunit 9 (Homo sapiens), O00233 (parent)
chain: MSDEEARQSGGSSQAGVVTVSDVQELMRRKEEIEAQIKANYDVLESQKGIGMNEPLVDCEGYPRSDVDLYQVRTARHNIICLQNDHKAVMKQVEEALHQLHARDKEKQARDMAEAHKEAMSRKLGQSESQGPPRAFAKVNSISPGSPASIAGLQVDDEIVEFGSVNTQNFQSLHNIGSVVQHSEGKPLNVTVIRRGEKHQLRLVPTRWAGKGLLGCNIIPLQR
B2: Heterogeneous nuclear ribonucleoprotein A1 (Homo sapiens), P09651-2 (parent)
chain: MSKSESPKEPEQLRKLFIGGLSFETTDESLRSHFEQWGTLTDCVVMRDPNTKRSRGFGFVTYATVEEVDAAMNARPHKVDGRVVEPKRAVSREDSQRPGAHLTVKKIFVGGIKEDTEEHHLRDYFEQYGKIEVIEIMTDRGSGKKRGFAFVTFDDHDSVDKIVIQKYHTVNGHNCEVRKALSKQEMASASSSQRGRSGSGNFGGGRGGGFGGNDNFGRGGNFSGRGGFGGSRGGGGYGGSGDGYNGFGNDGSNFGGGGSYNDFGNYNNQSSNFGPMKGGNFGGRSSGPYGGGGQYFAKPRNQGGYGGSSSSSSYGSGRRF
partner: B1 chain
B3: Transcription factor E2-alpha (Homo sapiens), P15923-1 (parent)
chain: MNQPQRMAPVGTDKELSDLLDFSMMFPLPVTNGKGRPASLAGAQFGGSGLEDRPSSGSWGSGDQSSSSFDPSRTFSEGTHFTESHSSLSSSTFLGPGLGGKSGERGAYASFGRDAGVGGLTQAGFLSGELALNSPGPLSPSGMKGTSQYYPSYSGSSRRRAADGSLDTQPKKVRKVPPGLPSSVYPPSSGEDYGRDATAYPSAKTPSSTYPAPFYVADGSLHPSAELWSPPGQAGFGPMLGGGSSPLPLPPGSGPVGSSGSSSTFGGLHQHERMGYQLHGAEVNGGLPSASSFSSAPGATYGGVSSHTPPVSGADSLLGSRGTTAGSSGDALGKALASIYSPDHSSNNFSSSPSTPVGSPQGLAGTSQWPRAGAPGALSPSYDGGLHGLQSKIEDHLDEAIHVLRSHAVGTAGDMHTLLPGHGALASGFTGPMSLGGRHAGLVGGSHPEDGLAGSTSLMHNHAALPSQPGTLPDLSRPPDSYSGLGRAGATAAASEIKREEKEDEENTSAADHSEEEKKELKAPRARTSPDEDEDDLLPPEQKAEREKERRVANNARERLRVRDINEAFKELGRMCQLHLNSEKPQTKLLILHQAVSVILNLEQQVRERNLNPKAACLKRREEEKVSGVVGDPQMVLSAPHPGLSEAHNPAGHM
partner: B1 chain
B4: Chorionic somatomammotropin hormone 1 (Homo sapiens), P0DML2 (parent)
chain: MAPGSRTSLLLAFALLCLPWLQEAGAVQTVPLSRLFDHAMLQAHRAHQLAIDTYQEFEETYIPKDQKYSFLHDSQTSFCFSDSIPTPSNMEETQQKSNLELLRISLLLIESWLEPVRFLRSMFANNLVYDTSDSDDYHLLKDLEEGIQTLMGRLEDGSRRTGQILKQTYSKFDTNSHNHDALLKNYGLLYCFRKDMDKVETFLRMVQCRSVEGSCGF
partner: B1 chain

Variants of: B1
Details: with csh1_human CSH1, P0DML2

Row | Variant | effect of a mutation on the interaction
1 | L153G | decreasing interaction strength
2 | F162G | decreasing interaction strength

Variants of: B1
Details: with HNRNPA1, P09651-2

Row | Variant | effect of a mutation on the interaction
3 | L153G | decreasing interaction strength
4 | F162G | decreasing interaction strength

Variants of: B1
Details: with HNRNPA1, P09651-2
Remark: another data set of the same source

Row | Variant | effect of a mutation on the interaction
5 | L153G | disrupting interaction strength
6 | F162G | disrupting interaction strength
7 | L124G;Q126G;E128G | disrupting interaction strength
8 | L173G | with no effect
9 | Q181G | disrupting interaction strength

Variants of: B1
Details: with csh1_human CSH1, P0DML2
Remark: another data set of the same source

Row | Variant | effect of a mutation on the interaction
10 | L153G | disrupting interaction strength
11 | F162G | disrupting interaction strength
12 | L124G;Q126G;E128G | disrupting interaction strength
13 | L173G | with no effect
14 | Q181G | decreasing interaction strength

Variants of: B1
Details: with rs14_human RPS14, P62263

Row | Variant | effect of a mutation on the interaction
15 | L153G | disrupting interaction strength
16 | F162G | decreasing interaction strength
17 | L124G;Q126G;E128G | disrupting interaction strength
18 | L173G | with no effect
19 | Q181G | disrupting interaction strength

Variants of: B1
Details: with IL6R

Row | Variant | effect of a mutation on the interaction
20 | L153G | disrupting interaction strength
21 | F162G | disrupting interaction strength
22 | L124G;Q126G;E128G | disrupting interaction strength
23 | L173G | with no effect
24 | Q181G | disrupting interaction strength

Variants of: B1
Details: with HNRNPA1, P09651-2
Remark: another data set of the same source

Row | Variant | effect of a mutation on the interaction
25 | L124G;Q126G;E128G | decreasing interaction strength
26 | Q181G | decreasing interaction strength

Variants of: B2
Details: with psmd9_human PSMD9, O00233

Row | Variant | effect of a mutation on the interaction
27 | F320G | disrupting interaction strength

Variants of: B2
Details: with psmd9_human PSMD9, O00233
Remark: another data set of the same source

Row | Variant | effect of a mutation on the interaction
28 | F320G | decreasing interaction strength

Variants of: B2
Details: with psmd9_human PSMD9, O00233
Remark: another data set of the same source

Row | Variant | effect of a mutation on the interaction
29 | F320G | with no effect

Variants of: B3
Details: with psmd9_human PSMD9, O00233

Row | Variant | effect of a mutation on the interaction
30 | M654G | decreasing interaction strength

Variants of: B4
Details: with psmd9_human PSMD9, O00233

Row | Variant | effect of a mutation on the interaction
31 | F217G | with no effect
